Results on two molecules are retold here after patent publication US12018068B2, “Anti-O1 antibodies and uses thereof” (priority 2016, dated 2024).

Test [1] deals with O1 LPS. Briefly: Octet binding affinity to O1 LPS. Also noted: species or system Klebsiella pneumoniae. The following applies: average, from on-rate and off-rate, read-out: affinity constant (KD) to O1 LPS. From the text: In order to reduce potential sequence liabilities for antibody development including potential immunogenicity due to anti-drug antibodies, an unpaired Cysteine in the light chain CDR3 of KPE33 was exchanged with Threonine (T), and somatic mutations in the frameworks 1, 2, and 4 of KPE33 were replaced with germ line residues (as summarized in FIG. 5). CDRs were maintained as wildtype, except for the C107T substitution described above. The optimized KPE33 was named KPE33v2016. […] This platform provides a powerful tool to measure the rate of biomolecular complex formation and complex stability in a more biologically meaningful setting. Briefly, Protein A coated sensors were coated with 2 μg/mL O1 LPS for 10 minutes before being dipped into solution containing 0.2 μg/mL anti-O1 LPS mAbs in Kinetics buffer (ForteBio, dilute 10× to 1× with PBS). Changes in the number of molecules bound to the biosensor caused a shift in the interference pattern that was recorded in real time. […] The affinity constant (KD) of KPE33 and KPE33v2016 to O1 LPS was calculated based on the on-rate and off-rate from Octet sensorgram.
KPE33v2016 was further optimized, thereby creating two new variants—KPE33 H32+L2016(1EQ) and KPE33 H33+L2016(1EQ). Both of these variants contain a Methionine to Isoleucine mutation adjacent to CDRH1, a Tryptophan to Tyrosine mutation in CDRH2, an Aspartate to Glutamate mutation adjacent to CDRH2, Asparagine to Glutamine and Methionine to Leucine mutations in FRH3 and an Aspartate to Asparagine mutation in CDRH3. In addition, KPE33 H32+L2016(1EQ) had four FRH3 residues changed to the germ-line residues, whereas KPE33 H33+L2016(1EQ) only has three of the same FRH3 residues changed to the germ-line. Both of these variants contain the same light chain as KPE33v2016, but with a single Glutamate to Glutamine mutation in residue 1.

Test [2] has as its system ESBL strain Kp8561 (O1). Nature of the test: lethal bacteremia model, survival. Format: in vivo, Klebsiella pneumoniae. The following applies: C57BL/6 mice, 1.5, 5, 15 mg/kg one hour post challenge. As for the experimental part: In a bacteremia model, C57BL/6 mice were inoculated intraperitoneally with 1e8 CFU extended spectrum beta lactamase (ESBL) clinical isolate strain Kp8561 (O1). Anti-K. pneumoniae monoclonal antibody KPE33 at 1.5, 5, and 15 mg/kg and human IgG1 control antibody at 45 mg/kg were given one hour post bacterial challenge (therapeutic dosing). Mouse survival was monitored daily until up to day 8.

For test [3], the system named is K. pneumoniae carbapenem-resistant (CRE) strain Kp1131115 (O1). Nature of the test: acute lethal pneumonia model, survival. Format: in vivo, Klebsiella pneumoniae. The following applies: C57BL/6 mice, antibody one hour post bacterial challenge, vs human IgG1 control (R347). As to the method:
In an acute pneumonia model, C57BL/6 mice were inoculated intranasally with 1e4 to 1e8 CFU of the multi-drug resistant Klebsiella pneumoniae carbapenam resistant (CRE) clinical isolate strain KP1131115 (O1). Anti-K. pneumoniae monoclonal antibody KPE33 at 0.2, 1, and 5 mg/kg and human IgG1 control antibody at 5 mg/kg were given one hour post bacterial challenge (therapeutic dosing). Mouse survival was monitored daily until up to day 8.
Additionally, in an acute pneumonia model, C57BL/6 mice were inoculated intranasally with 1e4 to 1e8 CFU of the multi-drug resistant Klebsiella pneumoniae carbapenam resistant (CRE) clinical isolate strain KP1131115 (O1). Anti-K. pneumoniae monoclonal antibodies […] and […] at 0.2 and 1 mg/kg and human IgG1 control antibody at 5 mg/kg were given one hour post bacterial challenge (therapeutic dosing). Mouse survival was monitored daily until up to day 8.
KPE33 or KPE33-V-2016 were administered at a dose of 6 mg/kg 1 hour post bacterial infection with a Klebsiella pneumoniae carbapenam resistant strain.

Test [4] concerns Klebsiella pneumoniae of the LPS-O1 serotype. Nature of the test: primary screening, binding to whole bacteria. The source says: KPA27 and KPE33 were isolated from the peripheral blood of two different immune donors: #487 and #262, respectively. […] KPA27 and KPE33 were isolated from immune donors as IgG2 antibodies.
KPB202 and KPJ4 were isolated from tonsillar B cells of two different donors: T6 (KPB202) and T8 (KPJ4). […] KPB202 and KPJ4 were isolated from donors as IgG1 and IgG2 antibodies, respectively.

Test [5] has as its system highly virulent strain Kp43816 (O1). Briefly: acute pneumonia model with Kp43816, prophylactic dosing, survival. Format: in vivo, Klebsiella pneumoniae. The following applies: 15 mpk, 24 hour prior to challenge. As to the method: In order to determine the efficacy of anti-O1 antigen antibodies in combination with antibiotics, 54H7 was tested in an acute pneumonia models. C57BL/6 mice were inoculated intranasally with 1e4 CFU of highly virulent strain Kp43816 (O1). Anti-K. pneumoniae monoclonal antibody 54H7 at 15 mg/kg and human IgG1 control antibody at 15 mg/kg were given 24 hour prior bacterial challenge (prophylatic dosing). Mouse survival was monitored daily until up to day 14.

The subject of test [6] is Kp8045 Klebsiella. Briefly: pneumonia model, 54H7 synergy with meropenem. As to conditions: antibody 1 mpk at 1 hour, meropenem 1.5 mpk at 4 hour post challenge. Format: in vivo, Klebsiella pneumoniae. As to the method:
The synergy of anti-O1 antigen antibodies and antibiotic was also assessed in the pneumonia mouse models. C57BL/6 mice were inoculated intranasally with 1e4 to 1e8 CFU of Kp8045 Klebsiella. Both sub-therapeutic dosage of antibodies (1 mpk) and meropenem antibiotic (1.5 mpk) were administered at 1 hour or 4 hour post bacterial challenge, respectively. Mouse survival was monitored daily until up to day 8.

For test [7], the system named is Kp43816 LPS and Kp15380 LPS. Nature of the test: serum cytokines after LPS challenge (MSD kit). Type of test: in vivo, C57BL/6 mice. As to conditions: 3 hours after challenge with Kp43816 LPS and Kp15380 LPS. As to the method:
In order to determine the effect of anti-O1 antigen antibodies on serum cytokines after LPS challenge, C57BL/6 mice were challenged with 0.3 mg/kg LPS intraperitoneally 24 hours after anti-O1 administration. 3 hours later, animals were sacrificed, and serum cytokines were measured using a Meso Scale Discovery (MSD) proinflammatory cytokine kit based on manufacturer's instruction. Polymyxin B (PMB) was used as a positive control. Serum IL-6, TNF-alpha, and CXCL1 concentration were plotted in Prism.

Entries after “also recorded” stand apart in the source; their conditions may differ.

B1: KPE33: human anti-K. pneumoniae O1 antigen antibody, VH SEQ ID NO:8, VL SEQ ID NO:9, isolated as IgG2 from donor #262 (antibody, V domains shown)
VH: EVQLVESGGALVQPGGSLRLSCAVSGFIFDDYAIHWVRRAPGKGLEWVSGIAWKSGATNYADSVKGRFAISRDNSKKSMYLQMNSLGTEDTALYYCTRRRASGDDTFYYFDYWGQGTLVTVSS
VL: EIVLTQSPATLSLSPGERATLSCRASQNVNTNLAWYQQRPGQSPRLLIYDASTRAAGLPARFSGSGSGTDFTLTISSLEPEDFAVYYCQQCTNWRYTFGQGTKLEIK
modifications: KPE33 VH Amino Acid Sequence; KPE33 VL Amino Acid Sequence
By Kd is commonly meant the constant that tells how readily two partners part at equilibrium. B1: the Kd in test [1] was 5.83 nM. Further, the “survival, lethal bacteremia Kp8561” value in test [2] is reported as “protect mice from extended spectrum beta-lactamase (ESBL) strain Kp8561”. Besides, the “survival, lethal pneumonia Kp1131115” value in test [3] is reported as “protect mice from lethal bacterial challenge; also recorded: dose dependently enhanced survival”. Also, the “binding to bacteria in primary screening” value in test [4] is listed as “bind to Klebsiella pneumoniae of the LPS-O1 serotype”.

B2: 54H7: mouse hybridoma anti-O1 antigen antibody (Ms IgG3), VH SEQ ID NO:47, VL SEQ ID NO:48 (antibody, V domains shown)
VH: QVHLQQPGSELVRPGASVTLSCKASGYTFTNYWMQWVKQRPGQGLEWIGNIYPGSGNTNYDEKFRSKATLTVDTSSSTAYMHLTSLTSEDSAVYYCTRNWNFDYWGQGTTLTVSS
VL: DIQMTQSPSSLSASLGERVSLTCRASQDIGSSLNWLQQEPDGTIKRLIYATSSLDSGVPKRFSGSRSGSEYSLTISSLEAEDFVDYYCLQHTDSPYTFGGGTKLELK
modifications: 54H7 VH; 54H7 VL Amino Acid Sequence
As for B2, in test [5], the “survival, Kp43816 pneumonia, monotherapy” value was “significant protection”. Besides, the “survival, combination with meropenem, pneumonia Kp8045” value in test [6] was “significant synergy and better protection than monotherapy”. In test [7], the “serum IL-6” value is on record as “reduces”, the “serum KC (CXCL1)” value is recorded as “reduces” and the “serum TNF-alpha” value was “reduces”.
